Values of other authors in PMC3894449.

Experiments:
[1] = target: IL-15Ralpha (Homo sapiens) (UniProt Q13261)
[2] = target: IL-2Ralpha (Homo sapiens) (UniProt P01589)
Chain of UniProt P01589 (P01589 22-240): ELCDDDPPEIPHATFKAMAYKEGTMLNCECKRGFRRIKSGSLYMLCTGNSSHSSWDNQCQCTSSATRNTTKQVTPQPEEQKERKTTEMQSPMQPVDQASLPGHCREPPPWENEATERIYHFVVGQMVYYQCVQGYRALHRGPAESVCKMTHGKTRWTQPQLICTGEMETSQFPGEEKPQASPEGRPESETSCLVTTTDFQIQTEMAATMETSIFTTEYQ

Chain of UniProt Q13261 (Q13261 31-205): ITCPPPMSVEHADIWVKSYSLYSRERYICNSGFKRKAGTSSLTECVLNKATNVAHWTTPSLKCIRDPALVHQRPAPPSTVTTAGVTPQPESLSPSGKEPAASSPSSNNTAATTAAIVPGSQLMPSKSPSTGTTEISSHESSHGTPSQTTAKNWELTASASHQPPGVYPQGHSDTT

Kd [1] [nM] | Kd [2] [nM] | Substance
0.05 | – | IL-15 (from UniProt P40933)
– | 20 | IL-2 (from UniProt P60568)
